What was measured:
[1] = biological target: L-selectin on Jurkat cells (UniProt P14151); test: cell-based or functional assay
[2] = biological target: CD34 on CHO/FTVII/C2GnT cells cotransfected with KSGal6ST and HEC-GlcNAc6ST cDNAs; test: flow cytometry; CHO/FTVII/C2GnT cells with CD34 (2 µg), 0.5 µg KSGal6ST and 0.5 µg HEC-GlcNAc6ST cDNA
[3] = biological target: CD34 on CHO/FTVII/C2GnT cells cotransfected with KSGal6ST and HEC-GlcNAc6ST cDNAs; test: flow cytometry; CHO/FTVII/C2GnT cells with CD34 (2 µg), 1 µg KSGal6ST and 0.5 µg HEC-GlcNAc6ST cDNA
[4] = biological target: CD34 on CHO/FTVII/C2GnT cells cotransfected with KSGal6ST cDNA; test: flow cytometry; CHO/FTVII/C2GnT cells with CD34 (2 µg) and 1.0 µg KSGal6ST cDNA
Chain of CD34 on CHO/FTVII/C2GnT cells cotransfected with KSGal6ST cDNA (P28906 32-385): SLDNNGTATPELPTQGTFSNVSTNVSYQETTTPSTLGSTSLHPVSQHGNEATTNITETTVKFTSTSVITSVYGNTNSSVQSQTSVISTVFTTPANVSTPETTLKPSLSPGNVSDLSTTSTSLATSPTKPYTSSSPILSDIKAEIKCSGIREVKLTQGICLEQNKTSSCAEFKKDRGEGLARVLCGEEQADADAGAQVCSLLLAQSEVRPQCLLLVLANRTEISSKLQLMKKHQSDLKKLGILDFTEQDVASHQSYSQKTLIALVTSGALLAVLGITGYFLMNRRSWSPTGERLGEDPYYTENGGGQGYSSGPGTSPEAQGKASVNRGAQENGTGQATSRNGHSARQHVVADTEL

[5] = biological target: CD34 on CHO/FTVII/C2GnT cells cotransfected with HEC-GlcNAc6ST cDNA; test: flow cytometry; CHO/FTVII/C2GnT cells with CD34 (2 µg) and 1 µg HEC-GlcNAc6ST cDNA
Chain of CD34 on CHO/FTVII/C2GnT cells cotransfected with HEC-GlcNAc6ST cDNA (P28906 32-385): as above

[6] = biological target: CD34 on CHO/FTVII/C2GnT cells, no sulfotransferase cDNA; test: flow cytometry; CHO/FTVII/C2GnT cells with CD34 cDNA alone
Chain of CD34 on CHO/FTVII/C2GnT cells, no sulfotransferase cDNA (P28906 32-385): as above

[7] = biological target: CD34 on CHO/FTVII/C2GnT cells cotransfected with KSGal6ST cDNA; test: flow cytometry; CHO/FTVII/C2GnT cells with CD34 (2 µg) and 1.5 µg KSGal6ST cDNA
[8] = biological target: CD34 on CHO/FTVII/C2GnT cells cotransfected with HEC-GlcNAc6ST cDNA; test: flow cytometry; CHO/FTVII/C2GnT cells with CD34 (2 µg) and 1.5 µg HEC-GlcNAc6ST cDNA
[9] = biological target: CD34 on CHO/FTVII/C2GnT cells cotransfected with KSGal6ST and HEC-GlcNAc6ST cDNAs; test: flow cytometry; CHO/FTVII/C2GnT cells with CD34 (2 µg), 0.5 µg KSGal6ST and 1.0 µg HEC-GlcNAc6ST cDNA
[10] = biological target: T1, rGlyCAM-1/IgG FT HEC-GlcNAc6ST (human, UniProt Q02596 20-151 (mouse entry), limits assumed, glycans made in COS cells co-transfected with C2GnT, FucT-VII and HEC-GlcNAc6ST (fucosylated, GlcNAc-6-sulfate)); test: cell-based or functional assay
T1 sequence (looked up): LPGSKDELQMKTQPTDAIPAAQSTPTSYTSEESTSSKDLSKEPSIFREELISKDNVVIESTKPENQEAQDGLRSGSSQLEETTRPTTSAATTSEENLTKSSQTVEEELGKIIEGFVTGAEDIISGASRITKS

[11] = biological target: T2, rGlyCAM-1/IgG FT KSGal6ST (human, UniProt Q02596 20-151 (mouse entry), limits assumed, glycans made in COS cells co-transfected with C2GnT, FucT-VII and KSGal6ST (fucosylated, Gal-6-sulfate)); test: cell-based or functional assay
T2 sequence (looked up): T1 sequence (looked up)

[12] = biological target: T3, rGlyCAM-1/IgG FT huGlcNAc6ST (human, UniProt Q02596 20-151 (mouse entry), limits assumed, glycans made in COS cells co-transfected with C2GnT, FucT-VII and huGlcNAc6ST (fucosylated, GlcNAc-6-sulfate)); test: cell-based or functional assay
T3 sequence (looked up): T1 sequence (looked up)

rGlyCAM-1/IgG = biological target: T4, rGlyCAM-1/IgG (human, UniProt Q02596 20-151 (mouse entry), limits assumed, not fucosylated by FucT-VII, no sulfotransferase co-transfected); test: cell-based or functional assay
T4 sequence (looked up): T1 sequence (looked up)

Chain of CD34 on CHO/FTVII/C2GnT cells cotransfected with KSGal6ST and HEC-GlcNAc6ST cDNAs (P28906 32-385): as the sequence (P28906 32-385) above

With DREG56 (antibody) the Rolling of Jurkat cells on rGlyCAM-1/IgG FT after treatment with 5 µg/ml DREG56 (rolling cells) [1] was 0.

For “L-selectin/IgM chimera (from UniProt P18337 39-332; P01871 106-453) (Fc fusion)”, the MFI (background subtracted) [2] was 935 MFI, the MFI (background subtracted) [3] was 917 MFI and the MFI (background subtracted) [4] was 364 MFI. The MFI (background subtracted) [5] was 114 MFI, the MFI (background signal) [6] was 139 MFI and the MFI (background subtracted) [7] was 391 MFI. It also gave an MFI (background subtracted) [8] of 163 MFI and an MFI (background subtracted) [9] of 830 MFI.

B1: L-selectin on Jurkat cells (receptor, UniProt P14151 39-372, looked up)
chain: WTYHYSEKPMNWQRARRFCRDNYTDLVAIQNKAEIEYLEKTLPFSRSYYWIGIRKIGGIWTWVGTNKSLTEEAENWGDGEPNNKKNKEDCVEIYIKRNKDAGKWNDDACHKLKAALCYTASCQPWSCSGHGECVEIINNYTCNCDVGYYGPQCQFVIQCEPLEAPELGTMDCTHPLGNFSFSSQCAFSCSEGTNLTGIEETTCGPFGNWSSPEPTCQVIQCEPLSAPDLGIMNCSHPLASFSFTSACTFICSEGTELIGKKKTICESSGIWSNPSPICQKLDKSFSMIKEGDYNPLFIPVAVMVTAFSGLAFIIWLARRLKKGKKSKRSMNDPY
With B1 the “fraction of tethered cells relative to non-sulfated GlyCAM-1/IgG (FT)” value [10] was 2 fold, the “fraction of tethered cells relative to non-sulfated GlyCAM-1/IgG (FT)” value [11] was 6 fold and the “fraction of tethered cells relative to non-sulfated GlyCAM-1/IgG (FT)” value [12] was 2 fold.

B2: human HEC-GlcNAc6ST (enzyme)
chain: MLLPKKMKLLLFLVSQMAILALFFHMYSHNISSLSMKAQPERMHVLVLSSWRSGSSFVGQLFGQHPDVFYLMEPAWHVWMTFKQSTAWMLHMAVRDLIRAVFLCDMSVFDAYMEPGPRRQSSLFQWENSRALCSAPACDIIPQDEIIPRAHCRLLCSQQPFEVVEKACRSYSHVVLKEVRFFNLQSLYPLLKDPSLNLHIVHLVRDPRAVFRSRERTKGDLMIDSRIVMGQHEQKLKKEDQPYYVMQVICQSQLEIYKTIQSLPKALQERYLLVRYEDLARAPVAQTSRMYEFVGLEFLPHLQTWVHNITRGKGMGDHAFHTNARDALNVSQAWRWSLPYEKVSRLQKACGDAMNLLGYRHVRSEQEQRNLLLDLLSTWTVPEQIH
With B2 the “incorporation of ^35S-SO4 into the GlyCAM-1 chimera in co-transfected COS cells” value (rGlyCAM-1/IgG) was > 10 fold.

Reference: patent US6933142 (University of California, dated 2005)
